The target of this assay is Herceptin-GlcNAc. The experiment in a line: cell-based or functional assay.

In turn, EndoSz-D234M (enzyme) gave a time dependent transglycosylation (HPLC, percent of Herceptin-GlcNAc remaining) of 0%.

(Values after patent publication US20200062861A1.)
